Target: T1, NKG2D (human, UniProt P26718 78-216, limits assumed)
T1 construct: XENP25379 (human) and XENP25380 (cynomolgus) were the panning antigens; also called Recombinant human NKG2D (XENP25379); CD314
T1 sequence (looked up): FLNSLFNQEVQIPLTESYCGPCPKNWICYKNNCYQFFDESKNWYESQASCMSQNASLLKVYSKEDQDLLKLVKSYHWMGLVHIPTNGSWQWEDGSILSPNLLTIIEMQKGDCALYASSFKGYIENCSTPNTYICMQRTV
Experiment: ELISA of phage clones on NKG2D

B1: 1D2B4[NKG2D] (antibody, V domains shown)
VH: EVQLLESGGGLVQPGGSLRLSCAASGFTFSSFGMSWVRQAPGKGLEWVSTISGSGSTTYYADSVKGRFTISRDNSKNTLYLQMNSLRAEDTAVYYCAKGVFSEWHYYFDYWGQGTLVTVSS
VL: not shown
binding result: binds

Reference: US20230151095A1 (Xencor, published 2023)
